Reference: ChEMBL document CHEMBL4613261, “Metabolic and Pharmaceutical Aspects of Fluorinated Compounds” (J Med Chem, 2020)

Experiments:
[1] = substrate: C[C@H](N)C(=O)O; settings: Escherichia coli B
Description: (§2) Substrate activity at Escherichia coli B alanine racemase assessed as Km

[2] = substrate: N[C@H](CF)C(=O)O; settings: Escherichia coli B
Description: as §2

[3] = substrate: N[C@@H](CF)C(=O)O; settings: Escherichia coli B
Description: as §2

[4] = substrate: OC[C@@H]1CC[C@H](n2cnc3c(Br)ncnc32)O1; assay: (§1) Prodrug conversion in rat blood assessed as Km for adenosine deaminase-mediated didanosine formation by HPLC analysis; format: ADME, tissue-based
[5] = substrate: OC[C@@H]1CC[C@H](n2cnc3c(F)ncnc32)O1; assay: as §1; format: ADME, tissue-based
[6] = substrate: OC[C@@H]1CC[C@H](n2cnc3c(Cl)ncnc32)O1; assay: as §1; format: ADME, tissue-based

B1: Alanine racemase, biosynthetic (Escherichia coli K-12), P0A6B4 (protein)
chain: MQAATVVINRRALRHNLQRLRELAPASKMVAVVKANAYGHGLLETARTLPDADAFGVARLEEALRLRAGGITKPVLLLEGFFDARDLPTISAQHFHTAVHNEEQLAALEEASLDEPVTVWMKLDTGMHRLGVRPEQAEAFYHRLTQCKNVRQPVNIVSHFARADEPKCGATEKQLAIFNTFCEGKPGQRSIAASGGILLWPQSHFDWVRPGIILYGVSPLEDRSTGADFGCQPVMSLTSSLIAVREHKAGEPVGYGGTWVSERDTRLGVVAMGYGDGYPRAAPSGTPVLVNGREVPIVGRVAMDMICVDLGPQAQDKAGDPVILWGEGLPVERIAEMTKVSAYELITRLTSRVAMKYVD
Q: What does the source list for B1?
A: Km [1]: 1300 µM; Km [2]: 2400 µM; Km [3]: 50 µM

B2: (Rattus norvegicus) (protein)
chain: MAQTPAFNKPKVELHVHLDGAIKPETILYYGKKRGIDLPADTVEGLRNIIGMDKPLSLPDFLAKFDYYMPAIAGCREAIKRIAYEFVEMKAKEGVVYVEVRYSPHLLANSKVDPIPWNQAEGDLTPDEVVDLVNQGLQEGEQAFGIKVRSILCCMRHQPSWSPEVLELCKKYHQKTVVAMDLAGDETIEGSSLFPGHVEAYEGAVKDGIHRTVHAGEVGSAEVVREAVDILKTERVGHGYHTIEDEALYNRLLKENMHFEVCPWSSYLTGAWNPKTTHAVVRFKDDQANYSLNSDDPLIFKSTVDTDYQMVKKDMGFTEEEFKRLNINAAKSSFLPEDEKKELLERLYKEYQ
Q: For B2, which Km [4] is on record?
A: 16000 µM

Q: What about the Km [5] of the same protein?
A: 720 µM

Q: What about the Km [6] of the same protein?
A: 17000 µM
